# From the DeepSol protein solubility set
# Experiment: soluble on expression in E. coli; label from the status in PepcDB or PDB records
row,Sequence,soluble on expression in E. coli
1,MFQIKKAAVLGSGVMGSGIAAHLANIGIPTLLLDIVPPALTKEEEAKGLTLEHKSVRNRFSNTAVQKLLKQKPAPLTVKGNLALIEAGNLEDDLERLADVDWIIEVVVENLDIKKKLFEKVDAVRKPGSIVSSNTSGISVEKMAEGRSDDFQKHFLGTHFFNPPRYLKLLEVIPTKKTDPQVLSFMKLFGEDVLGKGVVIAKDTPNFIGNRIGTYGLLVTLQEMVKRGYSIGEVDSVTGPLIGRPKSATFRTLDVVGLDTFVYVANNVYENVQEKERDVFKVPAFMHDMLDKKWLGSKTGQGFFLKQGKEILELNPETMEYEARKKLKAASIELSKQEKGLSNKLKALVYAKDRAGELLWNIITPTLLYSAKLHKEIADDIVAIDQAMKWGFGWEQGPFEVWDAIGVEKSVQKMEESGAVIPAWVKEMLEKGFTTFYKHDNGDSYYYDNGEYKLIECNKKAISLKQLKAKNGVLKKNSGASLIDLGDGILCLEFHSKSNAIGMDITQMINYAVDEVEKNYKGLVIGNQSKNFCVGANLAMILMEAQDDNYFEIEWVVKNFQDAMMKIKYSSKPVVAAPYGMTLGGGTEVCLPAASIQASSETYMGLVEVGVGLIPGGGGNKELYIKHLNKMANGVEFDLQKVANKVFETVAMAKVLTSGQEAVSHNFLGDKDGISVNGDHLLYDAKQKALALYEAGYKAPIRKKIPVVGETGYATLALGAEAMHLSGYISEYDLHIAKKLAYVIAGGKVPYGTEVDEQYLLDVEREAFISLVSEMKSQARMQHMLVKGKPLRN,not soluble
2,MFQIQETIVSPDLFDKYFVCDYATCQGICCVEGESGAPLEAGEADLLRKYLDAVRDMLSSEALEVIDKQGVSYLDVEGDEVTSIVNGRDCVFTTYDEKGNCLCAFERAYRLGKIDFPKPLSCHLYPVRLTRYSSFTAVNYHRWEICRCAEALGRQMGTPLYRFLKEPLIRAFGKEWYKEMEEIAALLEQNPLKR,not soluble
3,MFQLLAVCPMGLEAVVAKEIQELGYDTQVENGRIFFEGDESAIVRCNLWLRTADRIKIVMGRFNATTFDELFEQTKSLPWETVIDKEGNFPVQGRSVKSTLYSVPDCQAITKKAIVERLKHAHQEKGWLSETGAKYPVEVAILKDNVLLTIDTAGSGLNKRGYRIAQGEAPIKETLAASLIRLANWNGNTPLIDPFCGSGTIAIEACLIAQNIAPGFNRDFVSEQWNMMPPNIYDKFRDEADQLADYDKDIQVYASDIDPEMIEIAKRNAEEVGLGDIIQFNVKDVNTLSIDTDKPVALVGNPPYGERIGDREEVEEMYRYIGTLLKQHPHLSAYILTSNKEFEYLVNRKATKRRKLFNGYIECTYYQYWGKKQSNKN,not soluble
4,MFQQLSARLQEAIGRLRGRGRITEEDLKATLREIRRALMDADVNLEVTRDFVERVREEALGKQVLESLTPAEVILATVYEALKEALGGEARLPVLKDRNLWFLVGLQGSGKTTTAAKLALYYKGKGRRPLLVAADTQRPAAREQLRLLGEKVGVPVLEVMDGESPESIRRRVEEKARLEARDLILVDTAGRLQIDEPLMGELARLKEVLGPDEVLLVLDAMTGQEALSVARAFDEKVGVTGLVLTKLDGDARGGAALSARHVTGKPIYFAGVSEKPEGLEPFYPERLAGRILGMGDVASLAEKVRAAGLEAEAPKSAKELSLEDFLKQMQNLKRLGPFSEILGLLPGVPQGLKVDEKAIKRLEAIVLSMTPEERKDPRILNGSRRKRIAKGSGTSVQEVNRFIKAFEEMKALMKSLEKKKGRGLM,soluble
5,MFRLRLISGFNFAPIIADAIVDLSKDFFQSDNSEVCCGQILYLAISDEEGPGKPILDSKHVEVILTLDLPEDMDVYEKFGLSAYRQHILLRITQEARDQNALLTIKDLVKLLKSSYSTIIRDLKYFREKGLYVPLRGIVKDIGPSSHKSKIVELYLKGYTTTEIQRSTRHSLQSIERYIKDFSRVSILTQKGESIDNIRLIVGISERLVKEYQELFIKYKDGDNKQRVEELIDNITVYDSPMSFKKNSGMRM,not soluble
6,MFSGKTSRLIELMERHILAGRKVTLFKPEIDSRYSENEVVTHKGIKLPAVIAPTDERFGEFLAARTRDSNVLGFDEAQFWKPSSRLPQHLEDLANSGRTVYVAALNRDHFGNPFRMTVDILAISDEIYTLSAVCSRCGSDAIFTQRIINGSPAFGEIIRIGGKDLYEPRCRNCFVWPSAQKRITDL,soluble
7,MFSKVNNQKMLEDCFYIRKKVFVEEQGVPEESEIDEYESESIHLIGYDNGQPVATARIRPINETTVKIERVAVMKSHRGQGMGRMLMQAVESLAKDEGFYVATMNAQCHAIPFYESLNFKMRGNIFLEEGIEHIEMTKKLTSLN,not soluble
8,MFSTKKSQGNLHKYIQRQSTDEFAVKAREHNYRARSAFKLIEINEKFKFLKPESTVIDIGCAPGSWLQVVVQKCPNGYASGVDLQNVLPIRGADILSLSDITDPAVKLKIREKLAHRQVDVVLSDMAPNPTGDNATDHLRLIELCRSVFRLFSVENEIELVKNGVYLCKIWDGSARAEFVRELSDRFSTVKTVKPTACRDNSAELYLFCRNFKK,not soluble
9,MFTPIDQAIEHFKQNKFVIVMDDAGRENEGDLICAAENVSTEQMAFLVRHSSGYVCAPMTNAIADKLDLPLLRTGMKFESNDDDRHGTAYTITVDVAQGTTTGISAHDRSMTCRALADSSSTPKSFLKPGHICPLRAADGGVLQRRGHTEAGVDLCKLSGLSPVAVIGELVNDDEQGTMMRLNDCQAFGKKHGIPLISIEELAQYLKK,soluble
10,MFTTKGIDISGELTMMGIPEQNSKTVTPGLHYAADGFRLSGGNANFIARNMASVTGNIYADDAATITLGQPETETPTISSAYQAWAETLLYGFDTAYRGAITAPKATVSMNNAIWHLNSQSSINRLETKDSMVRFTGDNGKFTTLTVDNLTIDDSAFVLRANLAQADQ,not soluble
11,MFTTVITPRVSETDGVGHINNTTVPVWFEAGRHEIFKLFTPDLSFKRWRMVIIRMEVDYVNQMYYGQDVTVYTGIERIGNTSLTIYEEIHQNGVVCAKGRSVYVNFNFDTGRPEPIPDDIRVKLREHVWQPGE,soluble
12,MFVMEKVLFPFSAVVDEDDLKMALILNAIDQRIGGVLIMGPKGVAKSTIARSLTDLLPDIDVVKDCPFKCDPHDPSSMCDECIKKYRDGTIVSEKRKIPFVNMPVTATLDRVVGSLDIKRAIDEGLRALQPGLLAEANRGIIYIDEVNLLDDSVVDSILDSAASGINVVEREGVSVTHPARFILIGTMNPEEGDLRPQLKDRFGLSVTAVQPSDPEELIEISNRVEEFDRDPEAFRRKYEKIQNEIRNRIMRARSLLPSVVIDEDLKRFIAEVVIKLQAGNRAMITAVKASKAIAAFNGRDRVNIDDVKEALNLVLKHRVKDSAMIRGTIEKESRDLSTRSVEAGPHSGYEEGSESSGRRDMKAGNGKDEEKDVEVSAAFDEESNRSGRTGNADIFRILDQNRPGDHFDYRASLVNMIMNGRRRMKYEDLAFVSSRSRASIPVILAVDASRSMETMHRIALARGIARSFLHSAYRMRVKLSYITFYGTESHLMVEPTRNLDLIDREISRTVPQGKTPIPAALKMMYDISSRYRQRTVSIMITDGRANVPLGNDVTHDVREWSAKLGTRSDLFLISSTMGSERFMPSYNEDICRYSGGQLIEMDGNGHIALYSGYRRY,soluble
13,MFYGGIDVAKYRHEICIVDESGNVILQIFVDNTRNGLDKLIHNLKRLEIEVSNVEFCLEATGHYWLSLYYHLTELGYKIHVINPIQSDALRNFYVRKTKTDRKDAHLLADIVRFGHISETKLASETVLKLQNLSRLRFEFVRQVGGLKNRVLGILDRIFPEYPQCFSNVFINTSRELLKSFTAPEDLAEADLSELTDFLNKHSRGRLGVDRAKQIQALAKGTFGINIALDAFTLELRLLVEQIEFIEEQISVIEEAIDQVMEEMRPSKDTAYRHVLETIPGIGPVLAASIIGEIGDINRFPNAKALVAYAGLDATVRSSGQFEGTRNRISKRGSPVLRHSIWLAAVSARRFNPEMKEFFEKKRSEGKHTLVATGAVARRMVHLIYSLWKDNRPFDPNYQWSPTNSR,not soluble
